From paper PMC10685452 come the findings set out here.

Where no end group is shown, it is not given here.

The target of the assay is T1, hGOAT-eGFP (human ghrelin O-acyltransferase with C-terminal eGFP and His10 tag) (human) (UniProt Q96T53).
T1 sequence: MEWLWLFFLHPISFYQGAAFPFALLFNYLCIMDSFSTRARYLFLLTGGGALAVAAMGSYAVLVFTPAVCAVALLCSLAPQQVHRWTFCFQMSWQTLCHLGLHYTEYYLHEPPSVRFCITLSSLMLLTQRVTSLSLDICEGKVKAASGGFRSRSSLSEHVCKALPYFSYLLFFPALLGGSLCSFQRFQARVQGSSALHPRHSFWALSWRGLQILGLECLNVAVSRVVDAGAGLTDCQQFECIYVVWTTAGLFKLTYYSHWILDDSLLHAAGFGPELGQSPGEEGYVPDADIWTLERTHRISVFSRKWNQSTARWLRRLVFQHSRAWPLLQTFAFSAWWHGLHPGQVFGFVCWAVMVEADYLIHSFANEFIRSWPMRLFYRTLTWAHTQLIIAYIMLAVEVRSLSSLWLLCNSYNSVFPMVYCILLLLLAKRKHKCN

B1: fluorescently labeled ghrelin mimetic peptide GSSFLC-NH2 (acrylodan-labelled) (peptide)
peptide: GSSFLC-NH2
modifications: not fully specified (residue 6); printed as GSSFLC_NH2_; ends and bridges not checked; also: acrylodan label, site not given here
B1: the ghrelin octanoylation activity of the MEGA-9 solubilisation supernatant of hGOAT-eGFP (HPLC, conversion of the fluorescent peptide substrate to the octanoylated product) amounted to 20%.
